Measured values taken from paper PMC2637981, “High-Level Production, Solubilization and Purification of Synthetic Human GPCR Chemokine Receptors CCR5, CCR3, CXCR4 and CX3CR1” (PLoS ONE, 2009).

Target: the molecule itself
Assay: SEC; Ni2+ column eluate concentrated and run on Superdex 200 10/300 GL in Buffer C (1x PBS, 0.02% FC14); fractions tested by SDS-PAGE and Western blot; monomer, dimer and higher oligomer resolved

B1: Trx-hCCR3 (human chemokine receptor CCR3 with N-terminal HP-thioredoxin, expressed from pBAD-hCCR3) (receptor, UniProt P51677 1-355, looked up)
chain: MTTSLDTVETFGTTSYYDDVGLLCEKADTRALMAQFVPPLYSLVFTVGLLGNVVVVMILIKYRRLRIMTNIYLLNLAISDLLFLVTLPFWIHYVRGHNWVFGHGMCKLLSGFYHTGLYSEIFFIILLTIDRYLAIVHAVFALRARTVTFGVITSIVTWGLAVLAALPEFIFYETEELFEETLCSALYPEDTVYSWRHFHTLRMTIFCLVLPLLVMAICYTGIIKTLLRCPSKKKYKAIRLIFVIMAVFFIFWTPYNVAILLSSYQSILFGNDCERSKHLDLVMLVTEVIAYSHCCMNPVIYAFVGERFRKYLRHFFHRHLLMHLGRYIPFLPSEKLERTSSVSPSTAEPELSIVF
notes: synthetic full-length gene of 1,065 bp; not shown: HP-thioredoxin (E. coli thioredoxin with E32H and Q64H), N-terminal, kept; His6, C-terminal, kept
B1: binds.

B2: Trx-hCX3CR1 (human chemokine receptor CX3CR1 with N-terminal HP-thioredoxin, expressed from pBAD-hCX3CR1) (receptor, UniProt P49238 1-355, looked up)
chain: MDQFPESVTENFEYDDLAEACYIGDIVVFGTVFLSIFYSVIFAIGLVGNLLVVFALTNSKKPKSVTDIYLLNLALSDLLFVATLPFWTHYLINEKGLHNAMCKFTTAFFFIGFFGSIFFITVISIDRYLAIVLAANSMNNRTVQHGVTISLGVWAAAILVAAPQFMFTKQKENECLGDYPEVLQEIWPVLRNVETNFLGFLLPLLIMSYCYFRIIQTLFSCKNHKKAKAIKLILLVVIVFFLFWTPYNVMIFLETLKLYDFFPSCDMRKDLRLALSVTETVAFSHCCLNPLIYAFAGEKFRRYLYHLYGKCLAVLCGRSVHVDFSSSESQRSRHGSVLSSNFTYHTSDGDALLLL
notes: as for B1
B2: binds.
